The record followed here is paper PMC8685725 (Proceedings of the National Academy of Sciences of the …, 2021).

Assay [1] concerns the target T1, GFP-linked full-length hnRNPH1 (amino acids 2 through 449) (human (cDNA library from HEK-293T cells), UniProt P31943 2-449).
T1 sequence: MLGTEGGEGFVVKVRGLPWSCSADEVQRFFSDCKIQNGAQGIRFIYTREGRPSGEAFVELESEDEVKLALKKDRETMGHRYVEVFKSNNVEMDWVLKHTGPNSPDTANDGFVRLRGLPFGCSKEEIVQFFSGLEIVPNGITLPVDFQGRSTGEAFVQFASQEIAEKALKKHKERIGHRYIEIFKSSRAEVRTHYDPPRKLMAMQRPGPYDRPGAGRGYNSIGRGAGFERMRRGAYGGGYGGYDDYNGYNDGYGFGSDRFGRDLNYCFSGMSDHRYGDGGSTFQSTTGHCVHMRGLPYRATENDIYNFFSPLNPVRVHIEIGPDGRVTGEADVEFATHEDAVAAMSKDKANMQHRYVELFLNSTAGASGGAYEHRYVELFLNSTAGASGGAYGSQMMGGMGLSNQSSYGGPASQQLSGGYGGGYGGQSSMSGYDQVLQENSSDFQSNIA
The assay can be described thus: hydrogel-binding assay.

In assay [2] the target is T2, GFP:hnRNPH1-LC1, His tag cleaved, as liquid-like droplets (human (cDNA library from HEK-293T cells), UniProt P31943 192-280).
T2 sequence: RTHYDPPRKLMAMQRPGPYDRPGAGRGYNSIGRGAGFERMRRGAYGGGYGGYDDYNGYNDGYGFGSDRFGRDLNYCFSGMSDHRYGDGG
The assay can be described thus: LLD incorporation assay.

B1: mCherry-linked C-terminal half of hnRNPH1 (amino acids 192 through 449), as hydrogel droplets or polymers (domain or fragment)
chain: RTHYDPPRKLMAMQRPGPYDRPGAGRGYNSIGRGAGFERMRRGAYGGGYGGYDDYNGYNDGYGFGSDRFGRDLNYCFSGMSDHRYGDGGSTFQSTTGHCVHMRGLPYRATENDIYNFFSPLNPVRVHIEIGPDGRVTGEADVEFATHEDAVAAMSKDKANMQHRYVELFLNSTAGASGGAYEHRYVELFLNSTAGASGGAYGSQMMGGMGLSNQSSYGGPASQQLSGGYGGGYGGQSSMSGYDQVLQENSSDFQSNIA
Regarding B1, the binding result in assay [1] was “binds”.

B2: mCherry-linked LC1 domain of hnRNPH1 (amino acids 192 through 280), His tag cleaved (domain or fragment)
chain: T2 sequence
As for B2, in assay [2], the binding result is “binds”.
